The values that follow come from PMC8266564.

For the data set, the target named is T1, GFP-dRNH1 (catalytically inactive RNase H1) (Homo sapiens, UniProt O60930 28-286, D210N).
T1 sequence: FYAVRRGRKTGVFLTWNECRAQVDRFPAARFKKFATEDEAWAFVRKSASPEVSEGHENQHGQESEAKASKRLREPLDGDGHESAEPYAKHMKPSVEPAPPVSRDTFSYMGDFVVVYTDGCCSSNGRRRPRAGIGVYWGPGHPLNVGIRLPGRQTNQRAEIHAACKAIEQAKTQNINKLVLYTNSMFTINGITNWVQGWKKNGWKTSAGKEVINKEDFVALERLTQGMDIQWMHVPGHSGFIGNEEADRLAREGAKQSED
Kind of data set: EMSA. A general note: Mobility shift assays separate free from complexed probe on a gel.

B1: 60-bp RNA-DNA hybrid (RNA60/DNA60) (DNA:RNA)
RNA: GUUGUAACGACGGCCAGUGCCAAGUUCGGAUCGACGCUCGACUCUAGAGGAUCCCGGUAC
DNA: GTACCGGGATCCTCTAGAGTCGAGCGTCGATCCGAACTTGGCACTGGCCGTCGTTACAAC
Take B1: the binding result was “binds”.
